Data from patent US8629241B2, “Alpha helical mimics, their uses and methods for their production” (The University of Queensland, priority 2004, dated 2014).
Like-named read-outs stand apart in the source and are kept apart here. Bridges are numbered along the chain shown (N, C = ends). Where no end group is shown, it is not given here. [ ]: non-standard residue; d: D form. NPhGly = O=C(O)CNc1ccccc1; Orn = NCCC[C@H](N)C(=O)O

Assay type: physicochemical
Conditions: for [θ]207: molar elipticity at 207 nm; for θ222/θ208 / [θ]192 / [θ]208 / [θ]222: Table 8; for [θ]192 / [θ]208 / [θ]222: one or more cyclic pentapeptide modules versus linear peptides; for % helicity: fH × 100, [θ∞H]222 = −44000, k = 2.6; for helicity by CD compared to native agonist and antagonist sequences: versus F/Nphe-[…], FIG. 12; for percentage helicities: equation 2b with k˜4, assuming 8 has 100% helicity
Protocol: Circular Dichroism (CD) was performed on peptides having SEQ ID NOs: 8 to 14 and 18 to 31, using methods described above. The molar elipticities at 222 nm, 208 nm and 190 nm, ratios of elipticities at 222 nm/208 nm and relative helicity are shown in Tables 6 and 7.
Assuming that mean alpha helix content (fH) is linearly related to elipticity at 222 nm, or in our case 215 nm ([θ]obs215), then the equation for calculating helix content is: fH=([θ]obs215−[θ]C)/([θ]∞215−[θ]C) (1) Luo and Baldwin^22 determined that the random coil ([θ]C) and infinite alpha helix ([θ]∞222) molar elipticities are temperature dependent based on the equations: [θ]C=2220−53T (2a) [θ]∞215=(−44000+250T)(1−k/Np) (2b) where T is temperature in degrees Celsius, Np is the number of peptide units, and k is a finite length correction.
CD was performed on peptides having one [SEQ ID NO: 8] or more than one modular macrocycle [SEQ ID NOs: 46 and 47], as compared with corresponding linear peptides, Ac[KARAD]n—NH2 where n=1 [SEQ ID NO: 14], n=2 [SEQ ID NO: 54] and n=3 [SEQ ID NO: 55]. The molar elipticities at 222 nm, 208 nm and 190 nm, ratios of elipticities at 222 nm/208 nm and percentage helicity are shown in Table 8.
CD experiments were performed on a Jasco Model J-710 spectropolarimeter which was routinely calibrated with (1S)-(+)-10-camphorsulfonic acid. Temperature control was achieved using a Neslab RTE-111 circulating water bath. Spectra were recorded in a 0.1 cm Jasco cell between 310-185 nm at 50 nm/min with a band width of 1.0 nm, response time of 2 sec, resolution step width of 0.1 nm and sensitivity of 20, 50 or 100 mdeg. Each spectrum represents the average of 5 scans with smoothing to reduce noise. Peptide samples for CD spectroscopy were dissolved in distilled water (˜1 mg/mL). Each stock solution was diluted to a final concentration of 50 μM in 10 mM sodium phosphate buffer (pH7.4), with or without additives (2,2,2-trifluoroethanol (TFE) or guanidine.HCl). Guanidine.HCl denaturation experiments were performed according to Creighton^105.
1D ^1H NMR spectra were then recorded with presaturation and a relaxation delay (d1) of 30 seconds to allow for full relaxation of peptide and DSS^1H signals to facilitate accurate integration of proton signals with S/N>250:1. This method provides reproducible concentrations within ±2%.
CD data in ellipticity was converted to mean peptide ellipticity using the equation: [θ]=θ/(10×C×Np×1) where θ is the ellipticity in millidegrees, C is the peptide molar concentration (M), 1 is the cell path length (cm), and Np is the number of peptide units (ie. pentapeptides […], 10 & 11 Np=5, 12 Np=4.)
Relative helicities were employed to allow scaling of compounds by dividing the [θ]obs215(8)/[θ]obs215(x) for pentapeptides, and [θ]obs215(24)/[θ]obs215(x) for hexapeptides.

[1] = [θ]215 relative to SEQ ID NO: 8, 10 mM phosphate buffer, pH 7.4, 25° C
[2] = molar elipticity at 190 nm, 10 mM phosphate buffer, pH 7.4, 25° C
[3] = 10 mM phosphate buffer, pH 7.4, 25° C
[4] = molar elipticity at 215 nm, 10 mM phosphate buffer, pH 7.4, 25° C
[5] = ratio of elipticities, 10 mM phosphate buffer, pH 7.4, 25° C
[6] = cyclic hexapeptides 23-31, 10 mM phosphate buffer pH 7.4 at 25° C
[7] = θ215 relative to SEQ ID NO: 24, 10 mM phosphate buffer pH 7.4 at 25° C

Substance: Ac-(cyclo-1,5)-[KARAE]-NH2 (Ac-KARAE-NH2; lactam 1-5; SMILES CC(=O)N[C@H]1CCCCNC(=O)CC[C@@H](C(N)=O)NC(=O)[C@H](C)NC(=O)[C@H](CCCNC(=N)N)NC(=O)[C@H](C)NC1=O) [SEQ ID NO: 10]
- Relative helicity [1]: 0.08
- [θ]190 [2]: −10611 deg.cm^2.dmol^−1.residue^−1
- [θ]207 [3]: −3393 deg.cm^2.dmol^−1.residue^−1
- [θ]215 [4]: −1068 deg.cm^2.dmol^−1.residue^−1
- θ215/θ207 [5]: 0.31

Substance: SEQ ID NO: 55: linear peptide Ac(KARAD)n-NH2 where n=3 (Ac-KARADKARADKARAD-NH2)
- θ222/θ208: 0.39
- [θ]192: −8024 degcm^2dmol^−1residue^−1
- [θ]208: −9788 degcm^2dmol^−1residue^−1
- [θ]222: −3852 degcm^2dmol^−1residue^−1
- % helicity: 7%

Substance: H-(cyclo-1,5)-[KARAD]-NH2 (H-KARAD-NH2; lactam 1-5; SMILES C[C@@H]1NC(=O)[C@H](CCCNC(=N)N)NC(=O)[C@H](C)NC(=O)[C@@H](N)CCCCNC(=O)C[C@@H](C(N)=O)NC1=O) [SEQ ID NO: 21]
- Relative helicity [1]: 0.06
- Relative helicity ([θ]215 relative to SEQ ID NO: 8, in 0.001 M NaOH pH 10): 0.2
- [θ]190 [2]: 1355 deg.cm^2.dmol^−1.residue^−1
- [θ]190 (molar elipticity at 190 nm, in 0.001 M NaOH pH 10): 8452 deg.cm^2.dmol^−1.residue^−1
- [θ]207 [3]: −2228 deg.cm^2.dmol^−1.residue^−1
- [θ]207 (in 0.001 M NaOH pH 10): −3327 deg.cm^2.dmol^−1.residue^−1
- [θ]215 [4]: −812 deg.cm^2.dmol^−1.residue^−1
- [θ]215 (molar elipticity at 215 nm, in 0.001 M NaOH pH 10): −2590 deg.cm^2.dmol^−1.residue^−1
- θ215/θ207 [5]: 0.36
- θ215/θ207 (ratio of elipticities, in 0.001 M NaOH pH 10): 0.78

Substance: Cyclo(6-10, 11-15)-NpheGGFT[KARKD][KRKLD]-NH2 ([NPhGly]GGFTKARKDKRKLD-NH2; lactam 6-10, 11-15; N-terminus assumed; SMILES CC(C)C[C@@H]1NC(=O)[C@H](CCCCN)NC(=O)[C@H](CCCNC(=N)N)NC(=O)[C@@H](NC(=O)[C@@H]2CC(=O)NCCCC[C@H](NC(=O)[C@@H](NC(=O)[C@H](Cc3ccccc3)NC(=O)CNC(=O)CNC(=O)CNc3ccccc3)[C@@H](C)O)C(=O)N[C@@H](C)C(=O)N[C@@H](CCCNC(=N)N)C(=O)N[C@@H](CCCCN)C(=O)N2)CCCCNC(=O)C[C@@H](C(N)=O)NC1=O) [SEQ ID NO: 77]
- helicity by CD compared to native agonist and antagonist sequences: increase helicity

Substance: Ac-(cyclo-2,6)-R[KAGAD]-NH2 (Ac-RKAGAD-NH2; lactam 2-6; SMILES CC(=O)N[C@@H](CCCNC(=N)N)C(=O)N[C@H]1CCCCNC(=O)C[C@@H](C(N)=O)NC(=O)[C@H](C)NC(=O)CNC(=O)[C@H](C)NC1=O) [SEQ ID NO: 28]
- Molar ellipticity at 207 nm [6]: −7678 deg.cm^2.dmol^−1.residue^−1
- [θ]190 [6]: 10036 deg.cm^2.dmol^−1.residue^−1
- [θ]215 [6]: −4874 deg.cm^2.dmol^−1.residue^−1
- θ215/θ207 [6]: 0.63
- Relative helicity [7]: 0.32

Substance: cyclo(1-5, 6-10, 11-15)-Ac-[KARADKARADKARAD]-NH2 (Ac-KARADKARADKARAD-NH2; lactam 1-5, 6-10, 11-15; SMILES CC(=O)N[C@H]1CCCCNC(=O)C[C@@H](C(=O)N[C@H]2CCCCNC(=O)C[C@@H](C(=O)N[C@H]3CCCCNC(=O)C[C@@H](C(N)=O)NC(=O)[C@H](C)NC(=O)[C@H](CCCNC(=N)N)NC(=O)[C@H](C)NC3=O)NC(=O)[C@H](C)NC(=O)[C@H](CCCNC(=N)N)NC(=O)[C@H](C)NC2=O)NC(=O)[C@H](C)NC(=O)[C@H](CCCNC(=N)N)NC(=O)[C@H](C)NC1=O) [SEQ ID NO: 47]
- θ222/θ208: 1.34
- [θ]192: 100811 degcm^2dmol^−1residue^−1
- [θ]208: −23842 degcm^2dmol^−1residue^−1
- [θ]222: −31987 degcm^2dmol^−1residue^−1
- % helicity: 88%

Substance: Ac-(cyclo-1,5)-[EARAO]-NH2 (Ac-EARA[Orn]-NH2; lactam 1-5; SMILES CC(=O)N[C@H]1CCC(=O)NCCC[C@@H](C(N)=O)NC(=O)[C@H](C)NC(=O)[C@H](CCCNC(=N)N)NC(=O)[C@H](C)NC1=O) [SEQ ID NO: 19]
- Relative helicity [1]: 0
- [θ]190 [2]: −11256 deg.cm^2.dmol^−1.residue^−1
- [θ]207 [3]: −1917 deg.cm^2.dmol^−1.residue^−1
- [θ]215 [4]: 2442 deg.cm^2.dmol^−1.residue^−1
- θ215/θ207 [5]: −1.27

Substance: Ac-(cyclo-1,5)-[OARAD]-NH2 (Ac-[Orn]ARAD-NH2; lactam 1-5; SMILES CC(=O)N[C@H]1CCCNC(=O)C[C@@H](C(N)=O)NC(=O)[C@H](C)NC(=O)[C@H](CCCNC(=N)N)NC(=O)[C@H](C)NC1=O) [SEQ ID NO: 12]
- Relative helicity [1]: 0
- [θ]190 [2]: −4613 deg.cm^2.dmol^−1.residue^−1
- [θ]207 [3]: −2077 deg.cm^2.dmol^−1.residue^−1
- [θ]215 [4]: 92 deg.cm^2.dmol^−1.residue^−1
- θ215/θ207 [5]: −0.04

Substance: Ac-(cyclo-2,6)-R[KGSAD]-NH2 (Ac-RKGSAD-NH2; lactam 2-6; SMILES CC(=O)N[C@@H](CCCNC(=N)N)C(=O)N[C@H]1CCCCNC(=O)C[C@@H](C(N)=O)NC(=O)[C@H](C)NC(=O)[C@H](CO)NC(=O)CNC1=O) [SEQ ID NO: 29]
- Molar ellipticity at 207 nm [6]: −6975 deg.cm^2.dmol^−1.residue^−1
- [θ]190 [6]: 12831 deg.cm^2.dmol^−1.residue^−1
- [θ]215 [6]: −4810 deg.cm^2.dmol^−1.residue^−1
- θ215/θ207 [6]: 0.69
- Relative helicity [7]: 0.32

Substance: Ac-(cyclo-1,5)-[OARAE]-NH2 (Ac-[Orn]ARAE-NH2; lactam 1-5; SMILES CC(=O)N[C@H]1CCCNC(=O)CC[C@@H](C(N)=O)NC(=O)[C@H](C)NC(=O)[C@H](CCCNC(=N)N)NC(=O)[C@H](C)NC1=O) [SEQ ID NO: 18]
- Relative helicity [1]: 0
- [θ]190 [2]: −16228 deg.cm^2.dmol^−1.residue^−1
- [θ]207 [3]: −3368 deg.cm^2.dmol^−1.residue^−1
- [θ]215 [4]: 741 deg.cm^2.dmol^−1.residue^−1
- θ215/θ207 [5]: −0.22

Substance: Ac-(cyclo-1,5)-[DARAK]-NH2 (Ac-DARAK-NH2; lactam 1-5; SMILES CC(=O)N[C@H]1CC(=O)NCCCC[C@@H](C(N)=O)NC(=O)[C@H](C)NC(=O)[C@H](CCCNC(=N)N)NC(=O)[C@H](C)NC1=O) [SEQ ID NO: 9]
- Relative helicity [1]: 0.60
- [θ]190 [2]: 15600 deg.cm^2.dmol^−1.residue^−1
- [θ]207 [3]: −10705 deg.cm^2.dmol^−1.residue^−1
- [θ]215 [4]: −7723 deg.cm^2.dmol^−1.residue^−1
- θ215/θ207 [5]: 0.72

Substance: Ac-(cyclo-2,6)-R[KAAAD]-NH2 (Ac-RKAAAD-NH2; lactam 2-6; SMILES CC(=O)N[C@@H](CCCNC(=N)N)C(=O)N[C@H]1CCCCNC(=O)C[C@@H](C(N)=O)NC(=O)[C@H](C)NC(=O)[C@H](C)NC(=O)[C@H](C)NC1=O) [SEQ ID NO: 23]
- Molar ellipticity at 207 nm [6]: −13684 deg.cm^2.dmol^−1.residue^−1
- [θ]190 [6]: 39352 deg.cm^2.dmol^−1.residue^−1
- [θ]215 [6]: −13537 deg.cm^2.dmol^−1.residue^−1
- θ215/θ207 [6]: 0.99
- percentage helicities: 83%
- Relative helicity [7]: 0.91

Substance: Ac-(cyclo-2,6)-R[KAMAD]-NH2 (Ac-RKAMAD-NH2; lactam 2-6; SMILES CSCC[C@@H]1NC(=O)[C@H](C)NC(=O)[C@@H](NC(=O)[C@H](CCCNC(=N)N)NC(C)=O)CCCCNC(=O)C[C@@H](C(N)=O)NC(=O)[C@H](C)NC1=O) [SEQ ID NO: 25]
- Molar ellipticity at 207 nm [6]: −12296 deg.cm^2.dmol^−1.residue^−1
- [θ]190 [6]: 38464 deg.cm^2.dmol^−1.residue^−1
- [θ]215 [6]: −11853 deg.cm^2.dmol^−1.residue^−1
- θ215/θ207 [6]: 0.96
- percentage helicities: 73%
- Relative helicity [7]: 0.80

Substance: Cyclo(6-10, 11-15)-FGGFT[KARKD][KRKLD]-NH2 (FGGFTKARKDKRKLD; bicyclic lactam bridges, C-terminal amide) [SEQ ID NO: 76]
- helicity by CD compared to native agonist and antagonist sequences: increase helicity
